Tested on: MS2 coat protein
Experiment: apparent KD of MS2 coat protein; designed switch direction (-1 OFF switch, 1 ON switch): -1; higher = weaker reporter binding
Method in brief: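 Apparent KD, taken as the median over clusters for each design, was obtained by curve-fitting normalised cluster fluorescence. Designed RNA switches had been transcribed on Illumina chips by stalled E. coli RNA polymerase and titrated with SNAP-549-labelled MS2 coat protein, doubling from 0.7 or 1.5 nM to 3 µM.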

[1] = Eterna round: R95, input ligand: microRNA oligo, concentration not stated
[2] = input ligand: microRNA oligo, concentration not stated
[3] = Eterna round: R95, input ligand: FMN 200 uM
[4] = Eterna round: R95, input ligand: none

Sequence	apparent KD of MS2 coat protein [1] [nM]	apparent KD of MS2 coat protein (input ligand: FMN 200 uM) [nM]	apparent KD of MS2 coat protein [2] [nM]	apparent KD of MS2 coat protein (input ligand: none) [nM]	apparent KD of MS2 coat protein [3] [nM]	apparent KD of MS2 coat protein [4] [nM]
GGAGAGUCAGGAUAUACAUGAGGAUCACCCAUGUUGGAAAGUGGAGGGACGGGAGUCCGUAGAAGGGACGAGAG [Identicality] (puzzle: Exclusion 3)	27.7	–	–	–	–	–
GGAGGAAACGUAGGAUAUUGAAUAAAGCGGAAACGCAAGACAUGAGGAUCACCCAUGUGUCCGGACGAGAAGGGCGAAGAAGAA [AK 1] (Eterna round: R96, puzzle: Exclusion NG 2)	–	59.8	60.1	80.8	–	–
GGAGGAGGAGUGAGGAUAUGGUGGUGGAAACACCACCAGAAGGCACAUGAGGAUCACCCAUGUGAUGUAGAGAA [AK-MS2ROC-r4-Bmoexclusion4-16] (Eterna round: R97, puzzle: Brourd's mod of Exclusion 4)	–	27.4	–	16	–	–
GGAGGCCAGUAAGGAUAUUCAUGGUAGAUUCAUGAAGAAGGUACGGAGUGUCCUGACAUGAGGAUCACCCAUGUAGCCUCCAAG [Betien] (Eterna round: R96, puzzle: Exclusion NG 1)	–	76.4	25.1	34.3	–	–
GGAUAAAACUGAGGAUAUGAGGAGAGAGAGAGAUCAGAAGGCAGACAUGAGGAUCACCCAUGUGAGUUCUCGAUAAGAAACACG [Prohibition 56 - Jieux - Exclusion NG 1] (Eterna round: R96, puzzle: Exclusion NG 1)	–	58.9	30.7	38.3	–	–
GGAUAUAACGUAGGAUAUCUGAGAAAUAGAUGAAGAGAAGGACGACAUGAGGAUCACCCAUGUGAUCUAUCAAUAUUAUACAUG [Prohibition 100 - Jieux - Exclusion NG 1] (Eterna round: R96, puzzle: Exclusion NG 1)	–	–	332	–	–	–
GGAUAUAACGUAGGAUAUGAGCGCAACUGACGAUCAGAAGGACGACAUGAGGAUCACCCAUGUGAUCUAUCAAUAUUAUACAUG [Prohibition 95 - Jieux - Exclusion NG 1] (Eterna round: R96, puzzle: Exclusion NG 1)	–	590	495	977	–	–
GGAUCAUAUGUCAGGAUAUGCUGGUCCUUGGAUCAGCAGAAGGGACAUGAGGAUCACCCAUGUCAUGAAGAUCC [Eli bmx4 4.79] (Eterna round: R97, puzzle: Brourd's mod of Exclusion 4)	–	203	–	28.3	–	–
GGAUCGAGUGUGAGGAUAUACCUAUGGAUACAUAGGUAGAAGGCACAUGAGGAUCACCCAUGUUCCUACGGUCC [Eli bmx4 4.08] (Eterna round: R97, puzzle: Brourd's mod of Exclusion 4)	–	713	–	62.3	–	–
GGAUGUUAGGAGGAUAUCUGACGUCGAAAAGAAGGAGAAGGCCUGACAUGAGGAUCACCCAUGUGGUCAAAAGA [Eresinbi] (puzzle: Exclusion 6)	110	–	–	–	1200	97.8
GGAUUGCGGCAAGGAUAUCUUUGUCAACAUAAAACAUGAGGAUCACCCAUGUGCAUCUUCGUGUGAGAGAAGGUGCGGCGAUCC [Geceretima] (Eterna round: R96, puzzle: Exclusion NG 2)	–	1620	248	180	–	–
GGAUUUACUGAGGAUAUUACAUCACCCGAUUGAUAAGAAGGCAGAACAUGAGGAUCACCCAUGUGGGUAGUCAA [Polaris3] (Eterna round: R97, puzzle: Exclusion 6)	–	70.1	–	111	–	–
GGCAUAAUGUAGGAUAUCGUAAUGGAAACAUUACGAGAAGGGCAAACAUGAGGAUCACCCAUGUUCCUUAAGCC [Mat - Exclusion 6 - Eli Mod - D70] (puzzle: Exclusion 6)	14.2	–	–	–	18.7	15.4
GGCAUAAUGUAGGAUAUCGUAUUGGAAACAAUACGAGAAGGGCAAACAUGAGGAUCACCCAUGUUCCUUAAGCC [Mat - Exclusion 6 - Eli Mod - D71] (puzzle: Exclusion 6)	15.1	–	–	–	–	–
GGCAUCGGAGGAUAUACUAAUGGUGAUGCCCGAAGCUUUCUACUUGAGGAUCACCCAAGUAGAAGGCCGAUGCC [jl-ex2.4.80 ViennaUCT mod] (Eterna round: R97, puzzle: Exclusion 2)	–	11	–	13.1	–	–
GGCAUGUAAGGAUAUCUAUCGGUGAGAAAACCAAUUGGGCAAGAGAAGGUACAUGAGGAUCACCCAUGUGGACC [Eternabot (L1) Solution 9] (Eterna round: R97, puzzle: Exclusion 4)	–	135	–	44	–	–
GGCCGGCGAGGAUAUACCGAAUGAAGGUGAUAUGAAUGAUUACAUGAGGAUCACCCAUGUAGAAGGCGCCGGCC [Default title] (Eterna round: R97, puzzle: Exclusion 2)	–	327	–	146	–	–

Sequence	apparent KD of MS2 coat protein [1] [nM]	apparent KD of MS2 coat protein (input ligand: FMN 200 uM) [nM]	apparent KD of MS2 coat protein [2] [nM]	apparent KD of MS2 coat protein (input ligand: none) [nM]	apparent KD of MS2 coat protein [3] [nM]	apparent KD of MS2 coat protein [4] [nM]
GGCCUUCCACGAGCUUUUUACAUGAGGAUCACCCAUGUGGUUUUUAGUCUUAUCCCGGGCCCGCUGUCGGGCCCGGG [-32.2, -52.8, A 13%] (Eterna round: R97, puzzle: Sensor, turn-off variant 1)	–	29.1	–	33	–	–
GGCGAAGUAGGAUAUACAUGAGGAUCACCCAUGUAACCAGAUGGCGUAGGUCUUCUAUGUAGAAGGGCUACGCC [jl-ex3-4.34 ViennaUCT mod] (Eterna round: R97, puzzle: Exclusion 3)	–	16.9	–	17	–	–
GGCGACCUAGGAUAUACAUGAGGAUCACCCAUGUUUAUCUAUUAGAUGAAGACGGGUUGUAGAAGGAGGAUAUU [JL Geriin mod] (Eterna round: R96, puzzle: Exclusion 3)	–	19.5	14.6	20.2	–	–
GGCGACCUAGGAUAUACAUGAGGAUCACCCAUGUUUAUCUAUUAGAUGAAGACGGGUUGUAGAAGGAGGAUAUU [JL Geriin mod] (puzzle: Exclusion 3)	14.6	–	–	–	–	–
GGCGGACAUGAGGAUCACCCAUGUCAGGAUAUGGUGCGAUCGUCGAUAGACGAUAGCACCAGAAGGGACACGCC [Mat - Exclusion 1 - Eli Mod - D1] (Eterna round: R97, puzzle: Exclusion 1)	–	22.2	–	19.8	–	–
GGCGGGACAGGAUAUCUAGCACUAAACAUGAGGAUCACCCAUGUGGUGGUCGCAGGUGUCAGAGAAGGGUCAAAAG [Atenabe] (puzzle: Exclusion 5)	616	–	–	–	193	1480
GGCGUCGUGUAGGAUAUGAAUUGAAAGGCUUCGUCAGAAGGGCACACAUGAGGAUCACCCAUGUGACAGCUGAG [Eternabot (L1) Solution 78] (Eterna round: R97, puzzle: Exclusion 6)	–	20	–	19.9	–	–
GGGAGGAGUGUAGGAUAUCCGACAAUCCUGUCAGGAGAAGGGCACCCUACUUGAGGAUCACCCAAGUCUCCGGGUGCUCAAGAA [Mutated MS2 EX1.15] (Eterna round: R96, puzzle: Exclusion NG 1)	–	9.33	8.22	13.2	–	–
GGGAGUGAAGGAUAUACAUGAGGAUCACCCAUGUGGGAGGAGAGAGGUGAGGAGGCUGGUAGAAGGUCAGGAUG [JR_Exclusion3_Sub006] (puzzle: Exclusion 3)	48.3	–	–	–	–	–
GGGCUCGGAGGAUAUACAAUCUCGGGCUGAAAGGCUCGGGUACAUGAGGAUCACCCAUGUAGAAGGUCGGGCUC [-30.2, -27.6 kcal A 24%, 4bis,4] (Eterna round: R97, puzzle: Exclusion 2)	–	26	–	15.9	–	–
GGGCUGCGACACAGCCAAACAAAACAUGAGGAUCACCCAUGUCAGGAUAUACCGAUGCAGCAUCUGUAGAAGGGACAGAUCCAA [Lalaon] (Eterna round: R96, puzzle: Exclusion NG 3)	–	151	68.8	79.7	–	–
GGGCUGUCAGGAUAUACAUGAGGAUCACCCAUGUCGAGCUAUGAUAGGGCAAGAGUAGGUAGAAGGGACGAGAG [JR_Exclu3_Sub043] (puzzle: Exclusion 3)	32.6	–	–	–	43.7	32.7
GGGCUGUCAGGAUAUGGGCCCGGGCCCGAAAGGGUUUGGGCCCAGAAGGGACAUGAGGAUCACCCAUGUGGCCC [-43.8, -42.8 kcal, A 20%, 5b-0] (Eterna round: R97, puzzle: Exclusion 4)	–	34.2	–	34.5	–	–
GGGUAGUGAGGAUAUCGUUGUUAGGAGGAGAAGGUAGGAGGCGAGAAGGCACAUGAGGAUCACCCAUGUAUGAG [JR_Exclu4_Sub064] (puzzle: Exclusion 4)	26.9	–	–	–	–	–
GGGUCACAUGAGGAUCACCCAUGUGAGGAUAUGAUACUAUGUACUUCGGUACAUAGUAUCAGAAGGCACAUAAA [Ex1-3: 18] (puzzle: Exclusion 1)	36.6	–	–	–	–	–
GGGUGUCCAGUGAGGAUAUCCAGCGCUCAGGCGCAGGAGAAGGCACAUGAGGAUCACCCAUGUAGCUGAAGAAA [Geenra] (puzzle: Brourd's mod of Exclusion 4)	30.9	–	–	–	116	41.7
GGUACUCAAAGAGUACCAAUACGAACAUGAGGAUCACCCAUGUAGGAUAUGCUACUCAAAGAGUAGCAGAAGGAUAUGAACCCU [Far Half Aptamer v8] (Eterna round: R96, puzzle: Exclusion NG 3)	–	33.1	16.8	26.3	–	–
